Measurements reported in patent US20250027901A1.
“And” between values parts separate entries of the source, which are not always exact repeats. Identical values can stand only once. Like-named read-outs stand apart in the source and are kept apart here.

Columns and labels:
[1] = target: SARS-CoV-2 S1 (Sino Biological 40591-V08B1) (SARS-CoV-2) (UniProt P0DTC2)
[2] = target: snoopTag-msfGFP-3C cleavage site-TwinStrep
[3] = target: SARS-CoV-2 S1 (Sino Biological 40591-V08B1) (SARS-CoV-2) (UniProt P0DTC2); remark: listed apart in the source
[4] = target: SARS-CoV-2 S1 (Sino Biological 40591-V08B1) (SARS-CoV-2) (UniProt P0DTC2); assay: OECT sensor, SpyDirect SARS-CoV-1 nanobody gate, 1.2 aM spike (FIG. 4C, saliva)
lysozyme [5] = assay: OECT sensor, SpyDirect SARS-CoV-1 nanobody gates after 7-day storage, lysozyme
lysozyme, sequence (P00698 19-147): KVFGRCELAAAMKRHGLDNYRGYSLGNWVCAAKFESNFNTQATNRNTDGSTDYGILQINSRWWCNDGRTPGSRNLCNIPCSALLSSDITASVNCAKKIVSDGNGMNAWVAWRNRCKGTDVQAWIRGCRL

[6] = target: Cysteine terminated spyTag peptide (…); assay: QCMD, nanobody-SpyCatcher coupling to Cys-SpyTag peptide on gold (SpyDirect)
lysozyme [7] = target: lysozyme
[8] = target: SARS-CoV-2 Spike-pseudotyped lentivirus (GeneCopoeia CAT. SP101-100) (SARS-CoV-2) (UniProt P0DTC2)

Question: For “VHH72-8 aa-spyCatcher-3C cleavage site-His8”, which normalized response (NR) [1] is on record?
Answer: 20%

Question: What about the gained mass (ng/cm^2) [2] of the same substance?
Answer: < 1 ng/cm^2

Question: What about the Density per cm^2 [3] of the same substance?
Answer: 5.2e+12 per cm^2 and 2.3e+12 per cm^2

Question: What about the gained mass (ng/cm^2) [3] of the same substance?
Answer: 290 ng/cm^2 and 659 ng/cm^2

Question: And the normalized response (NR) [4]?
Answer: 20%

Question: What about the normalized response (NR) (lysozyme [5]) of the same substance?
Answer: < 12%

Question: What about the Density per cm^2 [6] of the same substance?
Answer: 7.8e+12 per cm^2

Question: What about the gained mass (ng/cm^2) [6] of the same substance?
Answer: 376 ng/cm^2

Question: What about the normalized response (NR) (lysozyme [7]) of the same substance?
Answer: < 15%

Question: What about the normalized response (NR) [8] of the same substance?
Answer: 28%
